B1: Thermus thermophilus ClpB, full-length (natural protein)
chain: not shown
B2: ΔNClpB, Thermus thermophilus ClpB lacking the N-terminal domain (domain or fragment)
chain: not shown

Target: the molecule itself
Assay: native gel or EMSA

Row | Protein | binding result
1 | B1 | binds
2 | B2 | binds
